Assay [1] has as its target YFP-EF-preIQ-IQ (CaV1.3 α1 C-terminal fragment, amino acids 1453–1623) (human) (UniProt Q01668). Briefly: FRET or BRET.
The target of assay [2] is YFP-EF-preIQ-IQ-PCRD (CaV1.3 α1 C-terminal fragment, amino acids 1453–1664) (human). Briefly: FRET or BRET. (In general: Bioluminescence resonance energy transfer reports proximity on the nanometre scale.)
Chain of YFP-EF-preIQ-IQ-PCRD (CaV1.3 α1 C-terminal fragment, amino acids 1453–1664) (human) (Q01668 1453-1664): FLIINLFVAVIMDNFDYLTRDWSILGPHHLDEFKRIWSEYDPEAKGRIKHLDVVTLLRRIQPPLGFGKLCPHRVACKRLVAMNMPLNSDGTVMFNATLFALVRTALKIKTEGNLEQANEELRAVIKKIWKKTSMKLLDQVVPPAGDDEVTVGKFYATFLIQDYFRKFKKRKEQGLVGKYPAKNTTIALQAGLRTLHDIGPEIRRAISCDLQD

Chain of YFP-EF-preIQ-IQ (CaV1.3 α1 C-terminal fragment, amino acids 1453–1623) (human) (Q01668 1468-1638): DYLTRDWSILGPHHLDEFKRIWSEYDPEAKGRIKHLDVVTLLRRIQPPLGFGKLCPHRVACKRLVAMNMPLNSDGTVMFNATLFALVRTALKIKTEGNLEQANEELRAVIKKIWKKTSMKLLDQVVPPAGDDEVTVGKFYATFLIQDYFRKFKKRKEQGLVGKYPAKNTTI

Consider “CFP-labeled calmodulin (from UniProt P0DP23 1-149) (natural protein)”, for which the N FRET is 0.185 in assay [1] and 0.235 in assay [2].

The record behind these values is PMC2475692.
